In US6028055A, “Receptor selective BNP” (Genetech, Inc., priority 1997, dated 2000):
Where no end group is shown, it is not given here.

Columns and labels:
NPR-A IgG fusion (A-IgG) = NPR-A IgG fusion (A-IgG) (Homo sapiens, UniProt P16066); test: Phage ELISA measurement of phagemid affinities for NPR-A (A-IgG); settings: ratio of mutant BNP phagemid binding affinity (EC50) to ANP phagemid binding to A-IgG; clones after 7 rounds of selection
Description: ELISA measurement of phagemic affinities for NPR-A and NPR-C: Phage ELISA were determined according to the method of Cunningham, B. C. et al., (1994) EMBO J., 13:2508-2515. Microtiter plates (Nunc, Maxisorb, 96 wells) were coated with purified A-IgG (at 1 μg/ml) in 50 mM sodium bicarbonate (pH 9.6) at 4 C overnight. The plates were blocked with 5% skimmed milk and washed with PBS, 0.01% TWEEN 20. Serial dilutions of competing receptor (A-IgG or C-IgG) and a subsaturating concentration of BNP-phagemid were added to wells in 100 μl of binding buffer (2% skim milk in PBS). After 2 h the plates were washed, and the bound phagemid stained with sheep anti-M13 HRP conjugate antibody (Pharmacia #279402-01),and assayed.
The amino acid residues found at each randomized position after 7 rounds of selection are shown in Table I. 8 segments of 3 to 5 amino acids randomized by primer mutagenisis are indicated at the top of the figure, immediately above the numbering for 32 amino acid human BNP, the sequence of which is shown in single letter amino acid code. Cysteine residues 10 and 26 were not mutagenized since they form a disulfide bond essential for binding to NPR-A. The substitution of K3 for D (Display BNP) is analogous to the acidic substitution R3D in ANP used to facilitate secretion expression in E. coli (Cunningham et al. (1994)). Individual clones were picked and the DNA sequence was determined. The number of times a particular sequence was observed is shown on the left. The ratio of mutant BNP phagemid binding affinity to ANP phagemid binding to A-IgG is shown on the right. Mutations that occur outside of the mutagenesis window result from polymerase misincorporation mutations that render a selection advantage to the mutant BNP phagemid (Cunningham et al. (1994)).

NPR-C = target: T1, NPR-C (Homo sapiens, UniProt P17342); test: Measurement of binding affinities for NPR-C, membranes from stable 293 cell lines, 125I rat ANP displacement; design: unit not given here; settings: pure synthetic peptide vs 30 pM 125I rat ANP, 2 hours room temperature; duplicate points, three separate assays
T1 construct: expressed in transfected cells
T1 sequence (P17342 27-541): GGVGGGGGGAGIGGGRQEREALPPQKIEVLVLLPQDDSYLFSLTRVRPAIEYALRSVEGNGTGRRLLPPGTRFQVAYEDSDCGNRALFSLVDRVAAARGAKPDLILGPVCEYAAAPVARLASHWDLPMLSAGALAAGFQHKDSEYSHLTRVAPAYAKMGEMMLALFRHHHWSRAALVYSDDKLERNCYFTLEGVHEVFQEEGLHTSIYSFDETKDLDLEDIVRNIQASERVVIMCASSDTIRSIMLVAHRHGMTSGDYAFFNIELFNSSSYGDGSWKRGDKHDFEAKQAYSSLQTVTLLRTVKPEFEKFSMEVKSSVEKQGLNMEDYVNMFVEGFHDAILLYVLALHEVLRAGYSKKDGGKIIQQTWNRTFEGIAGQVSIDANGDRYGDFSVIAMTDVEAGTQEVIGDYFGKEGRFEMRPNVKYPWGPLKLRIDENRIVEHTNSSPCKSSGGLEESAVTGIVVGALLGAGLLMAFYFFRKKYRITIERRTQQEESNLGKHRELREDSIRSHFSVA
Description: Membrane Preparation Membranes from stable 293 cell lines expressing NPR-A (Lowe and Fendly (1992) J. Biol. Chem.) or NPR-C (Cunningham et al. (1994) supra) were prepared by removing the cells from tissue culture plates with 0.5MM EDTA in PBS, centrifuging at 225×g, 4° C., and resuspending in 50 mM Hepes Ph7.4, 1 mM EDTA, 1 mM DTT, 250 mM Sucrose, 0.7 μg/ml Pepstatin A, 0.5 μg/ml Leupeptin, 1 mM PMSF, 1 μM Phosphoramidon. The resuspended cells were homogenized for 30 seconds with a Brinkman polytron on setting 5. The homogenate was centrifuged in 30 ml corex tubes in Sorval HB-4 rotor at 400×(1500 rpm) for 10 minutes at 4° C. The supernatant was centrifuged again in screw cap polycarbonate tubes (Beckman 355618) at 100,000×g (31,500 rpm) for 30 minutes, 4° C. in a Beckman TI60 rotor. The pellet was resuspended in 50 mM Hepes, 0.1 mM EDTA, 5.0 mM MgCl2, 100 mM NaCl, 0.7μg/ml Pepstatin A, 0.5 μg/ml Leupeptin, 1 mM PMSF, 1 μM Phosphoramidon and homogenized again with 15 strokes in a Dounce homogenizer (Wheaton 7 ml, #357542). The membranes were passed through a 22 gauge needle several times before aliquoting into eppendorf tubes for storage at -80° C.
The binding was allowed to go for 2 hours at room temperature in 96 well U-bottomed microtiter polypropylene plates (Sigma M-4029) with gentle agitation. The bound hormone was separated from the free using a Packard Filtermate 196 cell harvester and 1% polyethyleneimine-saturated Packard unifilter-96 GF/B plates by vacuum filtration. The plates were dried under vacuum chamber for 10 minutes prior to adding 40 μl Microscint-20 scintillant and counting in a Packard Topcount scintillation counter. Each affinity represents points measured in duplicate within three separate assays.

Sequence of NPR-A IgG fusion (A-IgG) (P16066 with tags, fused parts or gaps limits assumed): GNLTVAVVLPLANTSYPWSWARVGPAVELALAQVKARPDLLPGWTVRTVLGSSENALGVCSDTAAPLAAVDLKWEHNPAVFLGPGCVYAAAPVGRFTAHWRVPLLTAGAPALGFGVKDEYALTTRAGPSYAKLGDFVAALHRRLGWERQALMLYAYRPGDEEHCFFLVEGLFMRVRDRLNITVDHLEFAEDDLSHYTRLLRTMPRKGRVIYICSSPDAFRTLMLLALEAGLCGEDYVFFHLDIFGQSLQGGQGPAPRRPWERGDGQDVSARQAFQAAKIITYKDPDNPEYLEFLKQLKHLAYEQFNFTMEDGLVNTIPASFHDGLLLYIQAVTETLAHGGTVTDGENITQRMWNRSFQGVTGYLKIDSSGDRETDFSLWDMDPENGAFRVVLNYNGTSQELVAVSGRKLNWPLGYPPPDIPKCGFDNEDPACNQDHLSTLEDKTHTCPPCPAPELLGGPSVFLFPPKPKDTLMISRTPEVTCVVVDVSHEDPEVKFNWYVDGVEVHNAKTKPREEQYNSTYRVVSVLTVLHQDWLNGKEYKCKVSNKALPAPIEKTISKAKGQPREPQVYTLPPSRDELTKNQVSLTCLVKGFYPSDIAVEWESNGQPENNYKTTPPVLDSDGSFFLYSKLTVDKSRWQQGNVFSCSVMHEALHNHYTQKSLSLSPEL

Substance	Binding to NPR-A ratio of mutant/hANP (NPR-A IgG fusion (A-IgG))	NPR-C binding affinity (Assay #1) (NPR-C)
F W R: BNP-phagemid clone of Table I (Display BNP, K3D); substitutions as in hBNP Gly23Phe, Leu24Trp, Gly25Arg (SEQ ID NO:2) (SPKMVQGSGCFGRKMERISSSSFWRCKVLRRH; ends and bridges not checked; cysteine pairing not given here)	0.8	–
G R R: BNP-phagemid clone of Table I (Display BNP, K3D); substitutions seem those of hBNP Arg13Gly, Lys14Arg, Ser19Arg	1.6	–
hANP Gly16Arg [reference compound]	–	10,601 ± 1271
hBNP Arg13Gly, Lys14Arg, Ser19Arg (SPKMVQGSGCFGGRMDRIRSSSGLGCKVLRRH)	–	28,370 ± 9,654
hBNP Gly23Leu, Leu24Trp, Gly25Arg (SPKMVQGSGCFGRKMERISSSSLWRCKVLRRH; ends and bridges not checked; cysteine pairing not given here) [L W R, measured as BNP-phagemid clone (Display BNP, K3D)]	2.0	–
hBNP Gly23Met, Leu24Phe, Gly25Arg (SPKMVQGSGCFGRKMERISSSSMFRCKVLRRH; ends and bridges not checked; cysteine pairing not given here) [M F R, measured as BNP-phagemid clone (Display BNP, K3D)]	3.0	–
hBNP Gly23Met, Leu24Trp, Gly25Arg [M W R]	1.0	–
hBNP Gly23Met, Leu24Tyr, Gly25Arg (SPKMVQGSGCFGRKMERISSSSMYRCKVLRRH; ends and bridges not checked; cysteine pairing not given here) [M Y R, measured as BNP-phagemid clone (Display BNP, K3D)]	2.4	–
hBNP Lys14Asn, Ser19Ala, Ser20Arg, Ser21Glu (SPKMVQGSGCFGRNMERIARESGLGCKVLRRH; ends and bridges not checked; cysteine pairing not given here) [N A R E, measured as BNP-phagemid clone (Display BNP, K3D)]	1.3	–
hBNP Lys14Asn, Ser19Arg (SPKMVQGSGCFGRNMERIRSSSGLGCKVLRRH; ends and bridges not checked; cysteine pairing not given here) [N R, measured as BNP-phagemid clone (Display BNP, K3D)]	3.5	–
hBNP Lys14Asn, Ser19Arg, Ser20Asn, Ser21Thr (SPKMVQGSGCFGRNMERIRNTSGLGCKVLRRH; ends and bridges not checked; cysteine pairing not given here) [N R N T, measured as BNP-phagemid clone (Display BNP, K3D)]	8.7	–
hBNP Lys14Asn, Ser19Arg, Ser20Gly (SPKMVQGSGCFGRNMERIRGSSGLGCKVLRRH; ends and bridges not checked; cysteine pairing not given here) [N R G, measured as BNP-phagemid clone (Display BNP, K3D)]	3.9	–
hBNP Lys14Asn, Ser19Arg, Ser20Gly, Ser21Met (SPKMVQGSGCFGRNMERIRGMSGLGCKVLRRH; ends and bridges not checked; cysteine pairing not given here) [N R G M, measured as BNP-phagemid clone (Display BNP, K3D)]	2.9	–
hBNP Lys14Asn, Ser19Arg, Ser20His, Ser21Leu (SPKMVQGSGCFGRNMERIRHLSGLGCKVLRRH; ends and bridges not checked; cysteine pairing not given here) [N R H L, measured as BNP-phagemid clone (Display BNP, K3D)]	1.0	–
hBNP Lys14Asn, Ser19Arg, Ser20Lys, Ser21Thr (SPKMVQGSGCFGRNMERIRKTSGLGCKVLRRH; ends and bridges not checked; cysteine pairing not given here) [N N K T, measured as BNP-phagemid clone (Display BNP, K3D)]	4.2	–
hBNP Lys14Asn, Ser19Arg, Ser20Thr, Ser21Lys (SPKMVQGSGCFGRNMERIRTKSGLGCKVLRRH; ends and bridges not checked; cysteine pairing not given here) [N R T K, measured as BNP-phagemid clone (Display BNP, K3D)]	4.4	–
hBNP Lys14Asn, Ser19Arg, Ser21Trp [N R S W]	4.4	–
hBNP Lys14Asn, Ser19Gly, Ser20Arg, Ser21Ala (SPKMVQGSGCFGRNMERIGRASGLGCKVLRRH; ends and bridges not checked; cysteine pairing not given here) [N G R A, measured as BNP-phagemid clone (Display BNP, K3D)]	4.8	–
hBNP Lys14Asn, Ser19Gly, Ser20Gly, Ser21Leu (SPKMVQGSGCFGRNMERIGGLSGLGCKVLRRH; ends and bridges not checked; cysteine pairing not given here) [N G G L, measured as BNP-phagemid clone (Display BNP, K3D)]	3.9	–
hBNP Lys14Asn, Ser19Gly, Ser20His, Ser21Leu (SPKMVQGSGCFGRNMERIGHLSGLGCKVLRRH; displayed on phagemid) [N G H L, measured as BNP-phagemid clone (Display BNP, K3D)]	14.8	–
hBNP Lys14Gln, Ser19Arg, Ser20His, Ser22Thr (SPKMVQGSGCFGRQMERIRHSTGLGCKVLRRH; displayed on phagemid) [Q R H S T, measured as BNP-phagemid clone (Display BNP, K3D)]	4.0	–
hBNP Lys14Thr, Ser19Arg, Ser20His, Ser21Gly, Ser22Gly (SPKMVQGSGCFGRTMERIRHGGGLGCKVLRRH; displayed on phagemid) [T R H G H, measured as BNP-phagemid clone (Display BNP, K3D)]	5.0	–
